Where a chain is given by its changes, count along the chain named.
B1: Antibody 3 scFv (scFv, V domains shown)
VH: QVQLVQSGAEVKKPGASVKVSCKASGYAFTSYYMHWARQAPGQGLEWMGIINPSGGSTSYAQKFQGRVTMTRDTSTSTVYMELSSLRSEDTAVYYCARGKLLKNPWGKGTLVTVSS
VL: QSVLTQPPSVSAAPGQKVTISCSGGSSNIGNSYVSWYQQLPGTAPKLLIYDNNKRPSGIPDRFSGSKSGTSATLAITGLQTGDEADYYCGTWFGTPASNYVFGTGTKLTVL
notes: tested as purified scFv
B2: Antibody 20 scFv (scFv, V domains shown)
VH: B1 VH with L101Y, L102W, K103M, N104Y, P105D
VL: B1 VL with F93D, G94T, T95S, P96T, A97V, S98W, N99E, Y100W, V101P
notes: tested as purified scFv
B3: Antibody 21 scFv (scFv, V domains shown)
VH: B1 VH with T58A, L101Y, L102W, K103M, N104Y, P105D
VL: QSVLTQPPSVSAAPGQKVTISCSGGSSNIGNSYVSWYQQLPGTAPKLLIYDNNKRPSGIPDRFSGSKSGTSATLAITGLQTGDEAVYFCGTWDTSTVWEWPFGTGTKLTVL
notes: tested as purified scFv
B4: Antibody 12 scFv (scFv, V domains shown)
VH: B1 VH with L101W, L102W, K103F, N104Y, P105D
VL: B3 VL with V86D, F88Y, V97T, W98M, E99Y, W100P, P101L
notes: tested as purified scFv
B5: Antibody 39 scFv (scFv, V domains shown)
VH: B1 VH with S54R, L101Y, L102W, K103M, N104Y, P105D
VL: B3 VL with V86D, F88Y, V97A
notes: tested as purified scFv
B6: Antibody 2 scFv (scFv, V domains shown)
VH: B1 VH with L101W, L102W, K103L, N104Y, P105N
VL: B1 VL with F93D, G94T, T95S, P96Q, A97P, S98P, Y100P, V101L
notes: tested as purified scFv
B7: Antibody 13 scFv (scFv, V domains shown)
VH: B1 VH with L101W, L102W, K103L, N104Y, P105D
VL: B3 VL with V86D, F88Y, V97T, W98L, E99Q, W100P, P101L
notes: tested as purified scFv
B8: Antibody 19 scFv (scFv, V domains shown)
VH: B1 VH with L101W, L102W, K103W, N104Q, P105H
VL: B3 VL with V86D, F88Y, V97T, W98Y, E99H, W100P, P101I
notes: tested as purified scFv
B9: Antibody 9 scFv (scFv, V domains shown)
VH: B1 VH with L101W, L102W, K103L, N104Y, P105N
VL: B3 VL with V86D, F88Y, V97T, W98M, E99Y, W100P, P101L
notes: tested as purified scFv
B10: Antibody 36 scFv (scFv, V domains shown)
VH: B1 VH with T58A, L101Y, L102W, K103M, N104Y, P105D
VL: B3 VL with V86D, F88Y, T94S
notes: tested as purified scFv
B11: Antibody 25 scFv (scFv, V domains shown)
VH: B1 VH with S54R, T58A, T69S, L101Y, L102W, K103M, N104Y, P105D
VL: B3 VL with S71T, V86D, F88Y, D93V
notes: tested as purified scFv
B12: Antibody 15 scFv (scFv, V domains shown)
VH: B1 VH with L101W, L102W, K103L, N104Y, P105N
VL: B3 VL with V86D, F88Y, V97H, W98R, E99H, W100P, P101L
notes: tested as purified scFv
B13: Antibody 24 scFv (scFv, V domains shown)
VH: B1 VH with S54R, L101Y, L102W, K103M, N104Y, P105D
VL: B3 VL with V86D
notes: tested as purified scFv
B14: Antibody 29 scFv (scFv, V domains shown)
VH: B1 VH with L101Y, L102W, K103M, N104Y, P105D, L111R
VL: B3 VL with V86D, F88Y, T96P
notes: tested as purified scFv
B15: Antibody 18 scFv (scFv, V domains shown)
VH: B1 VH with L101W, L102W, K103W, N104Q, P105H
VL: B3 VL with V86D, F88Y, V97T, W98P, E99M, W100P, P101V
notes: tested as purified scFv
B16: Antibody 34 scFv (scFv, V domains shown)
VH: B1 VH with T69S, L101Y, L102W, K103M, N104Y, P105D
VL: B3 VL with V86D
notes: tested as purified scFv
B17: Antibody 10 scFv (scFv, V domains shown)
VH: B1 VH with L101W, L102W, K103L, N104Y, P105D
VL: B3 VL with V86D, F88Y, W98L, E99T, W100P, P101I
notes: tested as purified scFv
B18: Antibody 7 scFv (scFv, V domains shown)
VH: B1 VH with L101W, L102W, K103W, N104Q, P105Y
VL: B3 VL with V86D, F88Y, T96S, V97P, W98P, E99Q, W100P, P101I
notes: tested as purified scFv
B19: Antibody 6 scFv (scFv, V domains shown)
VH: B1 VH with L101Y, L102W, K103M, N104Y, P105D
VL: B3 VL with V86D, F88Y, V97T, W98Y, E99H, W100P, P101I
notes: tested as purified scFv
B20: Antibody 11 scFv (scFv, V domains shown)
VH: B1 VH with L101W, L102W, K103F, N104Y, P105D
VL: B1 VL with F93D, G94T, T95S, A97S, S98M, N99I, Y100P, V101L
notes: tested as purified scFv
B21: Antibody 17 scFv (scFv, V domains shown)
VH: B1 VH with L101W, L102W, K103W, N104Q, P105H
VL: B3 VL with V86D, F88Y, T96P, W98D, E99R, W100P, P101I
notes: tested as purified scFv
B22: Antibody 4 scFv (scFv, V domains shown)
VH: B1 VH with L101W, L102W, K103L, N104Y, P105N
VL: B3 VL with V86D, F88Y, T96S, V97P, W98P, E99Q, W100P, P101I
notes: tested as purified scFv
B23: Antibody 32 scFv (scFv, V domains shown)
VH: B1 VH with L101Y, L102W, K103M, N104Y, P105D
VL: B3 VL with V86D, V97A
notes: tested as purified scFv
B24: Antibody 24PGL scFv (scFv, V domains shown)
VH: B1 VH with A37V, S54R, L101Y, L102W, K103M, N104Y, P105D
VL: B3 VL with A75G, V86D
notes: tested as purified scFv
B25: Antibody 16 scFv (scFv, V domains shown)
VH: B1 VH with L101W, L102W, K103L, N104Y, P105N
VL: B3 VL with V86D, F88Y, V97T, W98Y, E99H, W100P, P101I
notes: tested as purified scFv
B26: Antibody 8 scFv (scFv, V domains shown)
VH: B1 VH with L101W, L102W, K103W, N104Q, P105Y
VL: B3 VL with V86D, F88Y, V97T, W98Y, E99H, W100P, P101I
notes: tested as purified scFv
B27: Antibody 23 scFv (scFv, V domains shown)
VH: B1 VH with K12R, L101Y, L102W, K103M, N104Y, P105D
VL: B3 VL with S32N, S57P, V86D, F88Y
notes: tested as purified scFv
B28: Antibody 14 scFv (scFv, V domains shown)
VH: B1 VH with L101W, L102W, K103L, N104Y, P105N
VL: B1 VL with F93D, G94T, T95S, A97P, S98T, N99K, Y100P, V101L
notes: tested as purified scFv
B29: Antibody 26 scFv (scFv, V domains shown)
VH: B1 VH with L101Y, L102W, K103M, N104Y, P105D
VL: B3 VL with V86D
notes: tested as purified scFv
B30: Antibody 22 scFv (scFv, V domains shown)
VH: B1 VH with L101Y, L102W, K103M, N104Y, P105D
VL: B3 VL with S2P, V86D
notes: tested as purified scFv
B31: Antibody 5 scFv (scFv, V domains shown)
VH: B1 VH with L101W, L102W, K103L, N104Y, P105D
VL: B3 VL with V86D, F88Y, T96S, V97P, W98P, E99Q, W100P, P101I
notes: tested as purified scFv

What was measured:
[1] = target: T1, human IL4Rα/Fc (R and D Systems 604-4R) (human, UniProt P24394 26-231, limits assumed, biotin labelled in the assay of Example 5); assay: HTRF receptor-ligand assay, purified scFv against biotinylated human IL4
T1 construct: bought protein; also called IL-4Rα/Fc (R&D systems Cat. No. 604-4R-050); not shown: Fc part of the bought fusion
T1 sequence (looked up): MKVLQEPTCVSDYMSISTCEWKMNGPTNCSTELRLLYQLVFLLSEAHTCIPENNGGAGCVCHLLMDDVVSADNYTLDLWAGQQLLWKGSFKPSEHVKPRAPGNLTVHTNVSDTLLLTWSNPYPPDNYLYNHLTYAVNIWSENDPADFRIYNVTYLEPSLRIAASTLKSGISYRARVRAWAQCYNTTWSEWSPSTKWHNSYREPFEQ

[2] = target: T2, cynomolgus IL4Rα/Fc HIS6 (HEK expressed) (cynomolgus monkey); assay: HTRF receptor-ligand assay, purified scFv against biotinylated cynomolgus IL4
T2 construct: also called Cyno IL4R; cynomolgus IL-4Rα HIS Fc (in house HEK-EBNA derived); not shown: HIS6 tag
T2 sequence (chain, as listed by the source): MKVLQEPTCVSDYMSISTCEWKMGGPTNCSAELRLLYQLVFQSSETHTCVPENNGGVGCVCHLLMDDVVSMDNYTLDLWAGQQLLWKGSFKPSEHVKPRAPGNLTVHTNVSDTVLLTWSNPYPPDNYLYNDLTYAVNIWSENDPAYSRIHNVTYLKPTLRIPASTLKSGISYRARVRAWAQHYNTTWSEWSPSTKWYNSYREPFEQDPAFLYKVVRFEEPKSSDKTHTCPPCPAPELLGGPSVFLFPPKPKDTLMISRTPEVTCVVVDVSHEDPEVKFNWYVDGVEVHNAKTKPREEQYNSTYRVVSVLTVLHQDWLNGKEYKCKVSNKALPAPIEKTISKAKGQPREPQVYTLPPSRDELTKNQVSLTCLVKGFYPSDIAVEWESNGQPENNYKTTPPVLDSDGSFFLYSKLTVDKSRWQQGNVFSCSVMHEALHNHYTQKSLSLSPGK

Binder | Ki [1] [nM] | Ki [2] [nM]
B1 | 0.5 | 48
B2 | 0.7 | 4.2
B3 | 0.031 | 1
B4 | 0.3 | 7.2
B5 | 0.027 | 1.6
B6 | 0.6 | 4.3
B7 | 0.3 | 22.2
B8 | 0.8 | 18.5
B9 | 0.1 | 12.9
B10 | 0.1 | 5.3
B11 | 0.039 | 1.3
B12 | 1 | 32.3
B13 | 0.049 | 0.8
B14 | 0.061 | 2.4
B15 | 0.7 | 56.5
B16 | 0.056 | 1.2

Binder | Ki [1] [nM] | Ki [2] [nM]
B17 | 0.5 | 19.6
B18 | 1.1 | 16.5
B19 | 0.3 | 3.5
B20 | 0.7 | 26.1
B21 | 0.9 | 43.5
B22 | 0.8 | 6.8
B23 | 0.075 | 1.3
B24 | 0.065 | 0.7
B25 | 0.4 | 8.7
B26 | 0.4 | 9.4
B27 | 0.2 | 4.8
B28 | 0.6 | 27.7
B29 | 0.1 | 1.2
B30 | 0.3 | 2.6
B31 | 0.6 | 3.8
